System: T1, cholesterol-tagged, protease-sensitive polyacrylic acid block copolymer containing the peptide GSGRSAGC (SEQ ID NO: 20), embedded in polymer-caged liposomes (PCLs)
T1 sequence: GSGRSAGC

Question: urokinase plasminogen activator (uPA) was tested. Which “carboxyfluorescein release from PCLs (total fluorescent intensity), -uPA vs +uPA (25 ug/mL, fresh batch), second test” value did it give?
Answer: The value was “They show very little difference in total intensity and the p value is 0.6617 between the two, indicating that they are not different”.

Question: And the “carboxyfluorescein release from PCLs (total fluorescent intensity), no uPA vs 25 ug/mL uPA, first test” value?
Answer: The value was “there was very little difference between the no uPA sample and the uPA sample, indicating that the polymer caged liposome did not have the desired sensitivity to uPA (p=0.5173)”.

Question: And the “carboxyfluorescein release from PCLs (total fluorescent intensity), no uPA vs renatured uPA, third test” value?
Answer: Its value is “there is a difference between the no uPA sample and the uPA sample with the uPA sample being significantly higher (p value 0.0071)”.

Question: What about the “change in conductance (current vs. time) after adding 10^-11 mol urokinase to MgSO4-loaded PCLs” value of the same substance?
Answer: The value was “A significant increase in conductance was observed due to the release of Mg^2+ and SO4^2- from the liposomes' hydrophilic interior”.

Question: What about the “fluorescence of cyanine 7.0 released from PCLs after adding urokinase-type plasminogen activator, recorded every 5 min” value of the same substance?
Answer: The value was “The highest peak was visible after 50 minutes of incubation time”.

Source: US20130183702
